Test results as given in article PMC4161314.
“And” between values parts separate entries of the source, which are not always exact repeats. Identical values can stand only once.

Target: 20S proteolytic core of the proteasome, mouse liver (mouse (endogenous in mouse liver)) (UniProt O55234)
Experiment: negative-stain electron microscopy; proteasomes co-purified with polyubiquitin conjugates on GstUBD beads, released at 37°C for 7 minutes, stained with 2% uranyl acetate; visual classification of side views, WT and PiZ samples

Chain of UniProt O55234 (O55234 whole entry, looked up): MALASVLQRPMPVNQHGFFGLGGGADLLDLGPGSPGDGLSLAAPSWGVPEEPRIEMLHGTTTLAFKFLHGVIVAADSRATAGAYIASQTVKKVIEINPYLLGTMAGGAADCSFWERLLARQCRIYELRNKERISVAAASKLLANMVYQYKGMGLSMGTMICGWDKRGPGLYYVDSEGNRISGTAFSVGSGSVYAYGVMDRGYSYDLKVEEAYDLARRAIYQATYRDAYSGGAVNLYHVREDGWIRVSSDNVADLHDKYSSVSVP

## 19S activator of the proteasome, mouse liver (from UniProt P62334 1-389) (complex)
  percent of proteasomes with at least one 19S cap: 93% and 90%
